The text below walks through data of the supplement of paper PMC7125110.

± gives the standard error. Variants at the floor of the assay were thinned out.

Sequences and labels used below:
B1: glmS ribozyme (parent)
chain: AUAAAAGCGCCAGAACUACAGAAAUGUAGUUGACGAGGAGGAGGUUUAUCGAAUUUUCGGCGGAUGCCUCCAAA

Settings in all cases: with glucosamine-6-phosphate
Series [1] covers variants of B1. The series can be described thus: self-cleavage kobs at 40 uM GlcN6P; higher = faster cleavage; RNA array. Put shortly: (§1)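 On sequenced MiSeq chips, barcoded ribozyme variants were made in situ by E. coli RNA polymerase and followed at 37 °C through a hybridised Cy3 probe. Glucosamine-6-phosphate was flowed in at 40 μM to 10 mM in HEPES/KCl/Mg(OAc)2 buffer. Exponential fits to normalised per-tile medians gave kobs, and weighted Michaelis–Menten fits gave kcat and KM.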

Variants of B1 are the subject of series [2]. The series is described as follows: self-cleavage kobs at 10000 uM GlcN6P; higher = faster cleavage; RNA array. An outline of the steps:
as §1

Variants of B1 are the subject of series [3]. The series can be described thus: self-cleavage kobs at 640 uM GlcN6P; higher = faster cleavage; RNA array. Put shortly:
as §1

In series [4] the parent is B1. The series can be described thus: self-cleavage kobs at 2500 uM GlcN6P; higher = faster cleavage; RNA array. An outline of the steps: as §1
Series [5] covers variants of B1. The series can be described thus: self-cleavage kobs at 160 uM GlcN6P; higher = faster cleavage; RNA array. An outline of the steps:
as §1

Regarding G44C U46A G51A, in the series with glucosamine-6-phosphate [1], the “self-cleavage kobs at 40 uM GlcN6P” value was less than 1e-05 s⁻¹.
As for G9A G51A, in the series with glucosamine-6-phosphate [1], the “self-cleavage kobs at 40 uM GlcN6P” value is less than 1e-05 s⁻¹. Besides, the “self-cleavage kobs at 10000 uM GlcN6P” value in the series with glucosamine-6-phosphate [2] is less than 1e-05 s⁻¹.
For the variant C8G G9C C16A G38A G40U U49G U57C, in the series with glucosamine-6-phosphate [1], the “self-cleavage kobs at 40 uM GlcN6P” value is less than 1e-05 s⁻¹. Also, the “self-cleavage kobs at 10000 uM GlcN6P” value with glucosamine-6-phosphate [2] was less than 1e-05 s⁻¹.
As for C16G U65C C71G, the “self-cleavage kobs at 40 uM GlcN6P” value with glucosamine-6-phosphate [1] was less than 1e-05 s⁻¹. Besides, in the series with glucosamine-6-phosphate [2], the “self-cleavage kobs at 10000 uM GlcN6P” value was less than 1e-05 s⁻¹.
On to A39C U69G, for which the “self-cleavage kobs at 40 uM GlcN6P” value with glucosamine-6-phosphate [1] is less than 1e-05 s⁻¹. The “self-cleavage kobs at 640 uM GlcN6P” value in the series with glucosamine-6-phosphate [3] was less than 1e-05 s⁻¹. The “self-cleavage kobs at 10000 uM GlcN6P” value in the series with glucosamine-6-phosphate [2] was less than 1e-05 s⁻¹.
With G32U G62A, the “self-cleavage kobs at 40 uM GlcN6P” value in the series with glucosamine-6-phosphate [1] was less than 1e-05 s⁻¹. The “self-cleavage kobs at 640 uM GlcN6P” value with glucosamine-6-phosphate [3] was less than 1e-05 s⁻¹. The “self-cleavage kobs at 2500 uM GlcN6P” value with glucosamine-6-phosphate [4] is less than 1e-05 s⁻¹. Besides, the “self-cleavage kobs at 10000 uM GlcN6P” value in the series with glucosamine-6-phosphate [2] was less than 1e-05 s⁻¹.
As to U56C U57G, in the series with glucosamine-6-phosphate [1], the “self-cleavage kobs at 40 uM GlcN6P” value is less than 1e-05 s⁻¹. For the same variant, the “self-cleavage kobs at 2500 uM GlcN6P” value with glucosamine-6-phosphate [4] amounted to 2.91e-05 ± 1.2e-05 s⁻¹. The “self-cleavage kobs at 10000 uM GlcN6P” value in the series with glucosamine-6-phosphate [2] was determined as 8.26e-05 ± 2.1e-05 s⁻¹.
On to C8A U45A A53U, for which, in the series with glucosamine-6-phosphate [1], the “self-cleavage kobs at 40 uM GlcN6P” value is less than 1e-05 s⁻¹.
Take C16G G38C: the “self-cleavage kobs at 40 uM GlcN6P” value in the series with glucosamine-6-phosphate [1] is less than 1e-05 s⁻¹. For the same variant, in the series with glucosamine-6-phosphate [5], the “self-cleavage kobs at 160 uM GlcN6P” value was less than 1e-05 s⁻¹.
As for G7A A53C, the “self-cleavage kobs at 40 uM GlcN6P” value with glucosamine-6-phosphate [1] is less than 1e-05 s⁻¹. The “self-cleavage kobs at 160 uM GlcN6P” value in the series with glucosamine-6-phosphate [5] was less than 1e-05 s⁻¹. In the series with glucosamine-6-phosphate [3], the “self-cleavage kobs at 640 uM GlcN6P” value is less than 1e-05 s⁻¹. For the same variant, the “self-cleavage kobs at 2500 uM GlcN6P” value in the series with glucosamine-6-phosphate [4] was less than 1e-05 s⁻¹.
Regarding U49A G63C U69C, the “self-cleavage kobs at 40 uM GlcN6P” value with glucosamine-6-phosphate [1] was less than 1e-05 s⁻¹.
As to G38U G41C, the “self-cleavage kobs at 40 uM GlcN6P” value with glucosamine-6-phosphate [1] is less than 1e-05 s⁻¹. For the same variant, in the series with glucosamine-6-phosphate [5], the “self-cleavage kobs at 160 uM GlcN6P” value is less than 1e-05 s⁻¹. Besides, the “self-cleavage kobs at 640 uM GlcN6P” value in the series with glucosamine-6-phosphate [3] was less than 1e-05 s⁻¹. Besides, the “self-cleavage kobs at 2500 uM GlcN6P” value in the series with glucosamine-6-phosphate [4] was less than 1e-05 s⁻¹. For the same variant, in the series with glucosamine-6-phosphate [2], the “self-cleavage kobs at 10000 uM GlcN6P” value is less than 1e-05 s⁻¹.
For the variant G7A G32A U45A A52G U65G, the “self-cleavage kobs at 40 uM GlcN6P” value in the series with glucosamine-6-phosphate [1] was less than 1e-05 s⁻¹.
As for G43C G66A, the “self-cleavage kobs at 40 uM GlcN6P” value in the series with glucosamine-6-phosphate [1] is less than 1e-05 s⁻¹.
As for G44A U47A C71A, the “self-cleavage kobs at 40 uM GlcN6P” value with glucosamine-6-phosphate [1] was less than 1e-05 s⁻¹. Also, in the series with glucosamine-6-phosphate [3], the “self-cleavage kobs at 640 uM GlcN6P” value is less than 1e-05 s⁻¹. For the same variant, the “self-cleavage kobs at 2500 uM GlcN6P” value with glucosamine-6-phosphate [4] is less than 1e-05 s⁻¹. Further, in the series with glucosamine-6-phosphate [2], the “self-cleavage kobs at 10000 uM GlcN6P” value was less than 1e-05 s⁻¹.
As to G38A U49C, in the series with glucosamine-6-phosphate [1], the “self-cleavage kobs at 40 uM GlcN6P” value is less than 1e-05 s⁻¹. The “self-cleavage kobs at 2500 uM GlcN6P” value with glucosamine-6-phosphate [4] is less than 1e-05 s⁻¹.
In the case of G7U C10A A15U, the “self-cleavage kobs at 40 uM GlcN6P” value with glucosamine-6-phosphate [1] was less than 1e-05 s⁻¹. For the same variant, the “self-cleavage kobs at 640 uM GlcN6P” value with glucosamine-6-phosphate [3] is less than 1e-05 s⁻¹. Besides, in the series with glucosamine-6-phosphate [4], the “self-cleavage kobs at 2500 uM GlcN6P” value is less than 1e-05 s⁻¹.
As to U30G C71U, the “self-cleavage kobs at 40 uM GlcN6P” value in the series with glucosamine-6-phosphate [1] is 0.00033 ± 5e-05 s⁻¹. Moreover, the “self-cleavage kobs at 160 uM GlcN6P” value with glucosamine-6-phosphate [5] was 0.000449 ± 0.00011 s⁻¹. In the series with glucosamine-6-phosphate [3], the “self-cleavage kobs at 640 uM GlcN6P” value was determined as 0.00135 ± 0.00022 s⁻¹. In addition, the “self-cleavage kobs at 2500 uM GlcN6P” value with glucosamine-6-phosphate [4] stood at 0.00639 ± 0.0013 s⁻¹. In the series with glucosamine-6-phosphate [2], the “self-cleavage kobs at 10000 uM GlcN6P” value turned out to be 0.00769 ± 0.0016 s⁻¹.
Take A6G A33C: in the series with glucosamine-6-phosphate [1], the “self-cleavage kobs at 40 uM GlcN6P” value is less than 1e-05 s⁻¹. Also, in the series with glucosamine-6-phosphate [5], the “self-cleavage kobs at 160 uM GlcN6P” value was less than 1e-05 s⁻¹. For the same variant, in the series with glucosamine-6-phosphate [3], the “self-cleavage kobs at 640 uM GlcN6P” value was less than 1e-05 s⁻¹. Besides, the “self-cleavage kobs at 2500 uM GlcN6P” value with glucosamine-6-phosphate [4] is less than 1e-05 s⁻¹. Moreover, the “self-cleavage kobs at 10000 uM GlcN6P” value with glucosamine-6-phosphate [2] is less than 1e-05 s⁻¹.
As for C8G G40U, the “self-cleavage kobs at 40 uM GlcN6P” value with glucosamine-6-phosphate [1] was less than 1e-05 s⁻¹. Further, in the series with glucosamine-6-phosphate [3], the “self-cleavage kobs at 640 uM GlcN6P” value was less than 1e-05 s⁻¹. The “self-cleavage kobs at 2500 uM GlcN6P” value in the series with glucosamine-6-phosphate [4] is less than 1e-05 s⁻¹. In the series with glucosamine-6-phosphate [2], the “self-cleavage kobs at 10000 uM GlcN6P” value was less than 1e-05 s⁻¹.
Turning to C16G U57C, the “self-cleavage kobs at 40 uM GlcN6P” value with glucosamine-6-phosphate [1] is less than 1e-05 s⁻¹. In addition, the “self-cleavage kobs at 160 uM GlcN6P” value in the series with glucosamine-6-phosphate [5] was less than 1e-05 s⁻¹. Moreover, the “self-cleavage kobs at 10000 uM GlcN6P” value in the series with glucosamine-6-phosphate [2] amounted to 3.37e-05 ± 1.2e-05 s⁻¹.
As to A15U G32U A33U, in the series with glucosamine-6-phosphate [1], the “self-cleavage kobs at 40 uM GlcN6P” value is less than 1e-05 s⁻¹.
C16G A33U: the “self-cleavage kobs at 40 uM GlcN6P” value with glucosamine-6-phosphate [1] is less than 1e-05 s⁻¹. Besides, the “self-cleavage kobs at 10000 uM GlcN6P” value in the series with glucosamine-6-phosphate [2] is 3.36e-05 ± 1e-05 s⁻¹.
As to C34A U47G U54G G59U C68G, the “self-cleavage kobs at 40 uM GlcN6P” value with glucosamine-6-phosphate [1] came to 0.000664 ± 0.0002 s⁻¹. Besides, the “self-cleavage kobs at 10000 uM GlcN6P” value with glucosamine-6-phosphate [2] amounted to 0.000474 ± 0.00012 s⁻¹.
